Experimental findings from article PMC11419001 (bioRxiv, 2024) are described below.

The target of this experiment is ribosomal protein uS10 of the stalled 70S ribosome (E. coli, UniProt P0A7R5 1-103). Kind of experiment: cryo-EM structure.

B1: HrpA (E. coli DExH-box RNA helicase), preparation for cryo-EM (enzyme)
chain: MTEQQKLTFTALQQRLDSLMLRDRLRFSRRLHGVKKVKNPDAQQAIFQEMAKEIDQAAGKVLLREAARPEITYPDNLPVSQKKQDILEAIRDHQVVIVAGETGSGKTTQLPKICMELGRGIKGLIGHTQPRRLAARTVANRIAEELKTEPGGCIGYKVRFSDHVSDNTMVKLMTDGILLAEIQQDRLLMQYDTIIIDEAHERSLNIDFLLGYLKELLPRRPDLKIIITSATIDPERFSRHFNNAPIIEVSGRTYPVEVRYRPIVEEADDTERDQLQAIFDAVDELSQESHGDILIFMSGEREIRDTADALNKLNLRHTEILPLYARLSNSEQNRVFQSHSGRRIVLATNVAETSLTVPGIKYVIDPGTARISRYSYRTKVQRLPIEPISQASANQRKGRCGRVSEGICIRLYSEDDFLSRPEFTDPEILRTNLASVILQMTALGLGDIAAFPFVEAPDKRNIQDGVRLLEELGAITTDEQASAYKLTPLGRQLSQLPVDPRLARMVLEAQKHGCVREAMIITSALSIQDPRERPMDKQQASDEKHRRFHDKESDFLAFVNLWNYLGEQQKALSSNAFRRLCRTDYLNYLRVREWQDIYTQLRQVVKELGIPVNSEPAEYREIHIALLTGLLSHIGMKDADKQEYTGARNARFSIFPGSGLFKKPPKWVMVAELVETSRLWGRIAARIDPEWVEPVAQHLIKRTYSEPHWERAQGAVMATEKVTVYGLPIVAARKVNYSQIDPALCRELFIRHALVEGDWQTRHAFFRENLKLRAEVEELEHKSRRRDILVDDETLFEFYDQRISHDVISARHFDSWWKKVSRETPDLLNFEKSMLIKEGAEKISKLDYPNFWHQGNLKLRLSYQFEPGADADGVTVHIPLPLLNQVEESGFEWQIPGLRRELVIALIKSLPKPVRRNFVPAPNYAEAFLGRVKPLELPLLDSLERELRRMTGVTVDREDWHWDQVPDHLKITFRVVDDKNKKLKEGRSLQDLKDALKGKVQETLSAVADDGIEQSGLHIWSFGQLPESYEQKRGNYKVKAWPALVDERDSVAIKLFDNPLEQKQAMWNGLRRLLLLNIPSPIKYLHEKLPNKAKLGLYFNPYGKVLELIDDCISCGVDKLIDANGGPVWTEEGFAALHEKVRAELNDTVVDIAKQVEQILTAVFNINKRLKGRVDMTMALGLSDIKAQMGGLVYRGFVTGNGFKRLGDTLRYLQAIEKRLEKLAVDPHRDRAQMLKVENVQQAWQQWINKLPPARREDEDVKEIRWMIEELRVSYFAQQLGTPYPISDKRILQAMEQISG
On to B1, for which the binding result is “binds”.
